Laboratory results from the supplement of paper PMC10567573.

B1: EFHC1 (parent)
chain: NIYYYLEDDSMSVIEPVVENSGIL
B2: PLD5 (parent)
chain: KRTYWPDLDAKIREALVLRSVRVR
B3: SNAP91 (parent)
chain: FATASAAVPVSTSKPSSDLLDLQP

Variants of: B1
Assay: protein stability index of a GFP-peptide fusion (GPS, HEK-293T) (PSI 1-6); higher = more stable
Settings: c terminus: a fixed tail appended
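Note: lentivirally expressed fusions sorted by FACS into six bins by GFP to DsRed ratio, PSI derived from sequencing read proportions per bin multiplied by bin number.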

Protein stability index: each site, then its substitutions
I23: F 1.2, Y 2.51, H 2.43, E 3.12, N 2.71, K 2.53, G 2.14, D 2.81, V 1.8, T 3.04, R 1.99, W 2.47, Q 2.78, P 2.42, C 2.12, A 2.82
G22: V 2.43, Y 1.5, T 1.42
L24: A 2.08, Q 2.36, G 2.47, P 2.41, V 2.21, W 1.4, Y 2.31, S 2.58, H 2.31, N 2.48, I 3.15, M 2.02, C 2.02, R 2.46, F 2.12, D 2.48

Variants of: B2
Assay: as above
Settings: c terminus: a fixed tail appended

Protein stability index of substitutions, site by site:
L8: E 2.94, N 1.73, R 3.06, F 2, A 2.18, T 2.24, Y 3.05, M 2.72, D 2.83, Q 1.88, H 2.47, W 1.85, P 1.82
L16: I 1.95, S 2.51, V 2.53, W 3.86, D 2.8, H 2.94, G 1.31, P 2.02, N 2.61, Y 2.06
I12: F 1.93, R 2.78, Y 1.29, T 2.7, E 2.76, M 2.38, C 2.29, D 1.43, K 2.41, V 2.3, Q 2.54, H 2.19, A 2.01, L 1.81
R13: A 1.3, C 2.29, N 1.61, S 1.43, K 1.9, M 1.54, H 2.6, Q 1.28, V 2.31, G 1.89, Y 1.65, P 1.79
P6: A 2.54, D 1.28, H 1.96, K 1.25, G 1.82, S 1.67, W 3.99, Q 3.34, F 2.23, C 1.06
S20: Q 2.04, R 2, N 1.77, K 1.48, T 1.96
L18: S 1.88, F 1.78, T 1.71, E 2.93, W 2.04, G 1.91, K 2.64, N 2.45, Y 2.09, V 1.6, R 2.12, H 2.16, I 1.64, M 1.51
K11: P 2.14, M 1.04, A 1.42, E 2.17, Y 1.99, R 1.47, H 1.29, T 2.42, D 2.29
R22: G 1.65, L 1.4, H 1.51, K 1.99, C 2.32, V 2.14, S 2.14, A 1.45, Y 1.61, E 2.02, D 2.31, T 1.59, P 1.65
V23: P 3.22, Y 1.74, L 1.03, F 1.9, I 1.96, M 3.02, H 2.1, E 1.64, Q 2.12, D 2.35, C 1.61, T 1.88, K 1.99, A 1.93, N 2.54, W 1.78
D9: N 1.59, G 2.88, H 2.57, E 2.54
K1: L 1.6, F 2.55, T 1.93, Y 1.05, M 1.79, C 1.46, H 2.25, P 1.79, N 2.21, E 2.58, R 1.92, G 2.53, D 2.06, S 1.84
V17: I 1.11, Q 1.57, R 1.32, H 3.18, K 1.79, W 1.3, N 5.34, T 1.57, E 1.6, M 2.18, L 1.91, S 1.95, G 2.11
Y4: W 1.75, I 1.96, F 1.41, D 2.75, A 1.17, Q 1.93, P 1.9, L 2.27, V 3.54, S 1.67, C 1.85, E 2.69, K 1.48, G 2.01, H 2.25, T 1.82
R19: Q 2.53, N 2.8, Y 2.67, E 1.69, S 1.8, K 1.45, T 2.53, H 1.48, C 2.36
T3: S 1.6, E 1.28, L 2.83, Q 2.91, A 1.78, W 1.12, I 1.46
D7: F 1.58, C 1.61, L 1.82, A 1.87, Y 1.37, S 2.02, P 3.44, T 2.39, E 1.02, V 1.23, R 2.62, M 2.84
E14: G 2.75, K 1.68, S 1.13, A 1.09, T 2.42, P 2.13, Q 1.88, H 1.27, C 1.46
W5: H 2.9, C 1.5, S 2.66, A 1.86, E 2.79, V 4.52, T 1.58, I 3.62, K 2.01, Q 2.15, D 1.73, N 1.96, R 2.1
R24: A 1.53, K 1.08, C 2.52, D 2.27, H 1.74, P 2.01, F 2.13, E 1.94, S 1.97, M 1.68, Y 2.74, N 1.62, Q 3.34, T 1.52, L 1.77, I 2.32
A10: I 2.54, F 1.52, L 2.05, Y 2.61, T 2.33, H 3.11, P 2.36, V 1.93
R2: M 1.77, Q 2.31, K 2.56, W 1.32, V 2.43, Y 1.09, P 2.7, N 2.14, E 2.14, F 2.92, T 2.63, H 1.54
A15: N 1.51, T 1.72, Q 2.04, W 1.62, Y 2.11, E 2.26, P 1.67, V 1.04, K 1.9
V21: Y 2.68, K 2.75, F 3.54, R 2.4, I 1.66, A 1.84, N 2.48, S 2.09, M 2.51, G 2.4, Q 2, T 1.91, E 2.24, H 2.11

Variants of: B3
Assay: as above
Settings: c terminus: a fixed tail appended

Protein stability index of substitutions, site by site:
A4: Q 3.9
P15: K 3.57, Q 3.44
L20: A 4
S16: N 3.81, V 3.6, M 3.43, K 3.43
V10: K 4.04
T12: H 4.3
A6: T 3.5, K 4.23
L19: K 3.79, Y 3.56
D18: F 2.23
S13: M 3.67
V8: M 3.02
D21: L 2.48, A 3.4, Y 2.67, W 1.78
A2: S 4.01
K14: M 3.48, R 3.87
T3: W 1.64
S5: K 4.11
P9: Q 3.31
